Assay results from patent publication EP1980246A1.

What was measured:
[1] = target: purified porcine TGF-β1 (Peninsula) (porcine) (UniProt P07200); test: active TGF-β ELISA, R2X capture, TGF-β titrated in TBS, BDA47 detection; ΔA50%
[2] = target: recombinant human TGF-β1 (human) (UniProt P01137); test: as above
Chain of recombinant human TGF-β1 (human) (P01137 279-390 limits assumed): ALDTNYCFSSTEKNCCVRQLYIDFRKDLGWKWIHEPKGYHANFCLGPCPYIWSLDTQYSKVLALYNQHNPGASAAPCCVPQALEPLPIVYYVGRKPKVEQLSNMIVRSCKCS

Chain of purified porcine TGF-β1 (Peninsula) (porcine) (P07200 279-390 limits assumed): as the sequence (P01137 279-390 limits assumed) above

EC50 [1]: 680 pM | EC50 [2]: 720 pM
Substance: truncated extracellular domain of the type II TGF-beta receptor fused to glutathione-S-transferase (R2X) (from UniProt P08515 1-218; P37173 23-166)
